In article PMC10786891, “Massively parallel profiling of RNA-targeting CRISPR-Cas13d”:
Changes are numbered by the printed parent chain. Numbers in names are those of the source.

B1: target 3 U2G,U8G (mixed)
RNA 1: CACCCGUGCAAAAUUGCAGGGGUCUAAAACGACCUGAAUAUUUCAGAUCAAA
RNA 2: GGGAAUGGAUCCACAUCUACGAAUUCGUUUUUGAUCUGAAAUAGUCAGGGCUGCAGAUCGGAAGAGCACACGU
B2: target 3 insA 3' of 4,insA 3' of 4 (mixed)
RNA 1: B1 RNA 1
RNA 2: GGGAAUGGAUCCACAUCUACGAAUUCGUUUUUGAUCUGAAAUAUUCAGAAGUCUGCAGAUCGGAAGAGCACACGU
B3: target 3 insU 3' of 5,insC 3' of 3 (mixed)
RNA 1: B1 RNA 1
RNA 2: B2 RNA 2 with G48U, A49G, A50G, G51C
B4: target 3 U2A,C6A (mixed)
RNA 1: B1 RNA 1
RNA 2: B1 RNA 2 with G44U, C46A, G50A
B5: target 3 insC 3' of 9,insC 3' of 7 (mixed)
RNA 1: B1 RNA 1
RNA 2: B2 RNA 2 with U44C, C46U, A47C, G48C, A50G
B6: target 3 U2A,C6U (mixed)
RNA 1: B1 RNA 1
RNA 2: B1 RNA 2 with G44U, C46U, G50A
B7: target 3 insC 3' of 22,insU 3' of 22 (mixed)
RNA 1: B1 RNA 1
RNA 2: GGGAAUGGAUCCACAUCUACGAAUUCGUUUCUUUGAUCUGAAAUAUUCAGGUCUGCAGAUCGGAAGAGCACACGU
B8: target 1 insG 3' of 16,insG 3' of 4 (mixed)
RNA 1: CACCCGUGCAAAAAUGCAGGGGUCUAAAACUGAGCGGAUAACCUCUCUAUGG
RNA 2: GGGAAUGGAUCCACAUCUACGAAUUCGUACCAUAGAGGAGGUUAUCCGCGUCACCGAGAUCGGAAGAGCACACGU
B9: target 3 A9G,A18G (mixed)
RNA 1: B1 RNA 1
RNA 2: B1 RNA 2 with A34G, A43G, G44U, G50U
B10: target 3 insC 3' of 22,insG 3' of 6 (mixed)
RNA 1: B1 RNA 1
RNA 2: GGGAAUGGAUCCACAUCUACGAAUUCGUUUCUUGAUCUGAAAUAUUCGAGGUCUGCAGAUCGGAAGAGCACACGU
B11: target 3 U2G,C6U (mixed)
RNA 1: B1 RNA 1
RNA 2: B1 RNA 2 with G44U, C46U
B12: target 3 insC 3' of 21,insC 3' of 3 (mixed)
RNA 1: B1 RNA 1
RNA 2: B10 RNA 2 with C31U, U32C, G48A, A49G, G51C
B13: target 3 G3U,U7A (mixed)
RNA 1: B1 RNA 1
RNA 2: B1 RNA 2 with G44U, U45A, G49U, G50U
B14: target 3 C1U,A18G (mixed)
RNA 1: B1 RNA 1
RNA 2: B1 RNA 2 with A34G, G44U, G50U, C51U
B15: target 3 insC 3' of 7,insC 3' of 3 (mixed)
RNA 1: B1 RNA 1
RNA 2: B2 RNA 2 with A47C, G48A, A49G, A50G, G51C
B16: target 3 C6G,U7C (mixed)
RNA 1: B1 RNA 1
RNA 2: B1 RNA 2 with G44U, U45C, C46G, G50U
B17: target 3 C1A,A5C (mixed)
RNA 1: B1 RNA 1
RNA 2: B1 RNA 2 with G44U, A47C, G50U, C51A
B18: target 3 insC 3' of 5,insC 3' of 4 (mixed)
RNA 1: B1 RNA 1
RNA 2: B2 RNA 2 with G48C, A49G, A50C
B19: target 1 G12A,A18U (mixed)
RNA 1: B8 RNA 1
RNA 2: GGGAAUGGAUCCACAUCUACGAAUUCGUACCAUUGAGAGAUUAUCCGCUCACCGAGAUCGGAAGAGCACACGU
B20: target 3 G4U,C6G (mixed)
RNA 1: B1 RNA 1
RNA 2: B1 RNA 2 with G44U, C46G, G48U, G50U
B21: target 3 C1A,A18G (mixed)
RNA 1: B1 RNA 1
RNA 2: B1 RNA 2 with A34G, G44U, G50U, C51A
B22: target 3 A18G (mixed)
RNA 1: B1 RNA 1
RNA 2: B1 RNA 2 with A34G, G44U, G50U
B23: target 3 G3C,A5U (mixed)
RNA 1: B1 RNA 1
RNA 2: B1 RNA 2 with G44U, A47U, G49C, G50U
B24: target 3 C1U,G3C (mixed)
RNA 1: B1 RNA 1
RNA 2: B1 RNA 2 with G44U, G49C, G50U, C51U
B25: target 3 insU 3' of 11,insA 3' of 2 (mixed)
RNA 1: B1 RNA 1
RNA 2: B2 RNA 2 with A43U, U44A, C46U, A47C, G48A, A49G, A50G, G51U, U52A
B26: target 3 C1G,A18G (mixed)
RNA 1: B1 RNA 1
RNA 2: B1 RNA 2 with A34G, G44U, G50U, C51G
B27: target 3 insC 3' of 21,insG 3' of 5 (mixed)
RNA 1: B1 RNA 1
RNA 2: B10 RNA 2 with C31U, U32C, G48A, A49G
B28: target 1 insC 3' of 12,insU 3' of 4 (mixed)
RNA 1: B8 RNA 1
RNA 2: B8 RNA 2 with G38A, A39G, G41C, G50U

The binders below were run against T1, EsCas13d, nuclease-dead (Eubacterium siraeum, UniProt B0MS50, R295A;H300A;R849A;H854A) (assay: crRNA (strand 1, pre-loaded); Mg2+; 40 mM Tris-HCl pH 7.5, 150 mM NaCl, 6 mM MgCl2, 1 mM DTT, 0.1% Tween-20, 0.2 mg/ml BSA; 25 C; 10 min per concentration, then washed). Conditions: tags: His6-TwinStrep-SUMO cleaved; N-terminal SNAP kept (SNAP-Surface 488); label: 3' end held by stalled T7 RNA polymerase.
T1 sequence: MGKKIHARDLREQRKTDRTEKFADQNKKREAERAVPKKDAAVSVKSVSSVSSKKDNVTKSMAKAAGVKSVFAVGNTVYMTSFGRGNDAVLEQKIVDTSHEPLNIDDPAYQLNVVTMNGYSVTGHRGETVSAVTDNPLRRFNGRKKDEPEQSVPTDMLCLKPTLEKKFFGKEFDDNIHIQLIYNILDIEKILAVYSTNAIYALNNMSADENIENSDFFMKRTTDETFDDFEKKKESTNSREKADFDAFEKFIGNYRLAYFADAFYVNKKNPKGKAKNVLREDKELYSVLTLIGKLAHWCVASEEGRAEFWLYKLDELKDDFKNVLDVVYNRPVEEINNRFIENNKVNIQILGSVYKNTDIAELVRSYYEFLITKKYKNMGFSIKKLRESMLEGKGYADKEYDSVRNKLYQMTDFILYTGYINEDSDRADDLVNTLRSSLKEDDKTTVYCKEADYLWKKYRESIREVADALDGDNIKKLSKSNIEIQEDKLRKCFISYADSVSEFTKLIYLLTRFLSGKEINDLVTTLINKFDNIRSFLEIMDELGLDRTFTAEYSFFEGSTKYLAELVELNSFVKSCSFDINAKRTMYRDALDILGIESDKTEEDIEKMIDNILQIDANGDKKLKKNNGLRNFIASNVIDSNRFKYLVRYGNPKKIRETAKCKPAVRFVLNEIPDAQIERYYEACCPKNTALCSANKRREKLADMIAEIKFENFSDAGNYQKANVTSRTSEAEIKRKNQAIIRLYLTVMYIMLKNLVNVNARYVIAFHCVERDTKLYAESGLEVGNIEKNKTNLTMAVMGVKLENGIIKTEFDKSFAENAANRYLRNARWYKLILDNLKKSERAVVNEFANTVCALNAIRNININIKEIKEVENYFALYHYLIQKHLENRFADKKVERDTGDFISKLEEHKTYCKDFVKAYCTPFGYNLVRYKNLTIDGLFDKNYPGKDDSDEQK

Q: B1 was tested. Which Kd did it give?
A: 47 ± 14.5 nM

Q: Which Kd does the source give for B2 here?
A: 21.1 ± 3.3 nM

Q: With B3 as the binder, how does the Kd read?
A: 10.9 ± 1.1 nM

Q: With B4 as the binder, how does the Kd read?
A: 15.6 ± 1.9 nM

Q: For B5, which Kd is on record?
A: 113 ± 50.5 nM

Q: B6 was tested. Which Kd did it give?
A: 4.55 ± 0.43 nM

Q: B7 was tested. Which Kd did it give?
A: 19.1 ± 3.15 nM

Q: How did the Kd turn out when B8 was run?
A: 13.7 ± 0.7 nM

Q: B9 was tested. Which Kd did it give?
A: 26.4 ± 2.95 nM

Q: For B10, which Kd is on record?
A: 22.1 ± 2.45 nM

Q: With B11 as the binder, how does the Kd read?
A: 2.4 ± 0.255 nM

Q: With B12 as the binder, how does the Kd read?
A: 80 ± 30.5 nM

Q: B13 was tested. Which Kd did it give?
A: 37 ± 4.5 nM

Q: With B14 as the binder, how does the Kd read?
A: 43 ± 7 nM

Q: With B15 as the binder, how does the Kd read?
A: 97 ± 33 nM

Q: How did the Kd turn out when B16 was run?
A: 60.5 ± 5 nM

Q: Which Kd does the source give for B17 here?
A: 58.5 ± 10 nM

Q: With B18 as the binder, how does the Kd read?
A: 11.6 ± 0.65 nM

Q: For B19, which Kd is on record?
A: 25.2 ± 2.7 nM

Q: Which Kd does the source give for B20 here?
A: 68.5 ± 15 nM

Q: Which Kd does the source give for B21 here?
A: 48.5 ± 14 nM

Q: B22 was tested. Which Kd did it give?
A: 19.1 ± 1.7 nM

Q: With B23 as the binder, how does the Kd read?
A: 25 ± 2.6 nM

Q: Which Kd does the source give for B24 here?
A: 49.5 ± 15.5 nM

Q: How did the Kd turn out when B25 was run?
A: 56.5 ± 8.5 nM

Q: B26 was tested. Which Kd did it give?
A: 18.6 ± 2.6 nM

Q: With B27 as the binder, how does the Kd read?
A: 81 ± 15.5 nM

Q: With B28 as the binder, how does the Kd read?
A: 7.5 ± 0.8 nM
